Molecular target: T1, Nox1 (UniProt Q9Y5S8 1-564, limits assumed)
T1 sequence (looked up): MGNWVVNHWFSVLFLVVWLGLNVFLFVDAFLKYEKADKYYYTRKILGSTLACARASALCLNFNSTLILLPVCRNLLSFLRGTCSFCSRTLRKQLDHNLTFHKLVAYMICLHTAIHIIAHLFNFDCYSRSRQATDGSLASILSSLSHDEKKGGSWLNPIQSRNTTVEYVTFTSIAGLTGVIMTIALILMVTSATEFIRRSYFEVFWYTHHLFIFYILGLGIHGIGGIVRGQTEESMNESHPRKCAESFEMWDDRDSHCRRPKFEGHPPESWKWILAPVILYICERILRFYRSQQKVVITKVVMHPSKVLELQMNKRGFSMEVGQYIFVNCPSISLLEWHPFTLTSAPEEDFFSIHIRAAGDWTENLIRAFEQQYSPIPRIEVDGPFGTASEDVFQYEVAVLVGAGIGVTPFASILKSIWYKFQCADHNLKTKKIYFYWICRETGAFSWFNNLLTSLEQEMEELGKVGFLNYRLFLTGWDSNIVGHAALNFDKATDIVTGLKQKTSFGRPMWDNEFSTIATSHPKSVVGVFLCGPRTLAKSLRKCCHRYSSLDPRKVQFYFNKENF
Assay: cell-based or functional assay

H-EPVDALGKAKV-NH2 [NoxA1ds]
inhibition of O2^- production by Nox1-transfected COS22 cells (SOD-inhibitable cytochrome c reduction), IC50: 19 nM
